# According to doi:10.1101/2020.04.13.035477:
# Columns and labels:
# Assay in all cases: SPR
# [1] = target: H. polygyrus Alarmin Release Inhibitor (HpARI), full-length (Heligmosomoides polygyrus)
# [2] = target: HpARI_CCP1/2 (truncation of HpARI lacking CCP3) (Heligmosomoides polygyrus)
# [3] = target: HpARI_CCP2/3 (truncation of HpARI lacking CCP1) (Heligmosomoides polygyrus)
# Sequence of HpARI_CCP2/3 (truncation of HpARI lacking CCP1) (Heligmosomoides polygyrus) (A0A3P7XL18 126-297): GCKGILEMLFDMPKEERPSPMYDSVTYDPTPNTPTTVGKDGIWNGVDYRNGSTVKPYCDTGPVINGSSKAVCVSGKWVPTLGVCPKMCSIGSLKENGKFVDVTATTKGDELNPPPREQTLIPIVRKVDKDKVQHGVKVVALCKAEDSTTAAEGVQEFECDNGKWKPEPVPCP
# Sequence of HpARI_CCP1/2 (truncation of HpARI lacking CCP3) (Heligmosomoides polygyrus) (A0A3P7XL18 65-211): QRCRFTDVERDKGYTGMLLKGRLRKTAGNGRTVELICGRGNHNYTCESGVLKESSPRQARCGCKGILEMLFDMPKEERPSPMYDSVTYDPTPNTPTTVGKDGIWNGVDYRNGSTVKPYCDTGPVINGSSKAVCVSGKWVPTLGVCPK
substance,measurement,setting,value
recombinant murine IL-33 (from UniProt Q8BVZ5 1-266) (ligand),Kd,[1],1.1 nM
same,koff,[1],0.00015 s⁻¹
same,Kd,[2],9.8 nM
same,koff,[2],0.003 s⁻¹
same,Kd,[3],1.4 nM
